Experimental findings from PMC10911177, “Exploring the ATG9A interactome uncovers interaction with VPS13A” (Journal of cell science, 2024) are described below.

In this test the target is T1, 3×Flag−His6−ATG9A (purified) (UniProt Q7Z3C6 1-839).
T1 construct: ATG9A; also called Flag−ATG9A; 3×Flag−ATG9A
T1 sequence (looked up): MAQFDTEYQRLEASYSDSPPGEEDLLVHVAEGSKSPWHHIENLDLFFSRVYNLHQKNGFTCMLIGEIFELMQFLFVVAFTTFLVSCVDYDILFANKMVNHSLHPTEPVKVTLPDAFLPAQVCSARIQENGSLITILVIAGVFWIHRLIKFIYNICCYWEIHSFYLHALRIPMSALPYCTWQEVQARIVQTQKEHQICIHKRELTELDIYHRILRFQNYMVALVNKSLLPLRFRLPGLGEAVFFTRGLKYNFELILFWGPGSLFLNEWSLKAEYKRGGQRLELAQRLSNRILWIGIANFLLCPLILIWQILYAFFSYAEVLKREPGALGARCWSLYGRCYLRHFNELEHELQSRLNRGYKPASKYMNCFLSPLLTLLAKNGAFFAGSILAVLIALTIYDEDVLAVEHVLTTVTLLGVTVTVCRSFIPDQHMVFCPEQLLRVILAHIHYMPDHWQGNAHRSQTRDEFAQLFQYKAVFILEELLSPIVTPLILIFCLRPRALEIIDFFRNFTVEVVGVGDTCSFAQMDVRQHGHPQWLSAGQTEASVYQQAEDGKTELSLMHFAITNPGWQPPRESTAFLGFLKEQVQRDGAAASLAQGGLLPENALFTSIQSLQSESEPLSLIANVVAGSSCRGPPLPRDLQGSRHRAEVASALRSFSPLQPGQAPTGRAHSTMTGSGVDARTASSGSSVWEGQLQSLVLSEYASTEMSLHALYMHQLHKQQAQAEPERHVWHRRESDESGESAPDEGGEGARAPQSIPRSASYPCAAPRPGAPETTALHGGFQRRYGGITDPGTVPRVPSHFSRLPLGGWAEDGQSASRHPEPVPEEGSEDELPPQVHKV
As to the kind of experiment: co-IP; in vitro IP: 100 μg purified 3×Flag−GFP−VPS13A fragment 4 mixed with 10 μg purified ATG9A at 4°C in 0.002% LMNG:CHS (5:1), GFP-Trap beads, four washes with VPS13 buffer with detergent; immunoblot. The conditions noted are these: both partners purified. (In general: A western blot detects proteins with antibodies after separation by electrophoresis.)

B1: 3×Flag−eGFP−VPS13A fragment 4 (purified) (domain or fragment, human, UniProt Q96RL7 2554-3174, looked up)
chain: VVWETKPKKKARWKPMSVKHTEKLEREFKEYTESSPSEDKVIQLDTNVPVRLTPTGHNMKILQPHVIALRRNYLPALKVEYNTSAHQSSFRIQIYRIQIQNQIHGAVFPFVFYPVKPPKSVTMDSAPKPFTDVSIVMRSAGHSQISRIKYFKVLIQEMDLRLDLGFIYALTDLMTEAEVTENTEVELFHKDIEAFKEEYKTASLVDQSQVSLYEYFHISPIKLHLSVSLSSGREEAKDSKQNGGLIPVHSLNLLLKSIGATLTDVQDVVFKLAFFELNYQFHTTSDLQSEVIRHYSKQAIKQMYVLILGLDVLGNPFGLIREFSEGVEAFFYEPYQGAIQGPEEFVEGMALGLKALVGGAVGGLAGAASKITGAMAKGVAAMTMDEDYQQKRREAMNKQPAGFREGITRGGKGLVSGFVSGITGIVTKPIKGAQKGGAAGFFKGVGKGLVGAVARPTGGIIDMASSTFQGIKRATETSEVESLRPPRFFNEDGVIRPYRLRDGTGNQMLQVMENGRFAKYKYFTHVMINKTDMLMITRRGVLFVTKGTFGQLTCEWQYSFDEFTKEPFIVHGRRLRIEAKERVKSVFHAREFGKIINFKTPEDARWILTKLQEAREPSPSL
notes: VPS13A, human, fragment 4, residues 2554-3174; Subcloned into pcDNA3.1(+); The methods partly write '3×Flag−eGFP−VPS13A' without 'fragment 4'; also called Flag−GFP−VPS13A4; 3×Flag-VPS13A fragment 4
Turning to B1, the binding result is recorded as “binds”.
